Measured values reported in a protein production outcome set (Wang et al. 2014).

Assay: label from the status in PepcDB records

With “MLTLLPTPIGNLQDITLRSLEVLKVAEIILCEDTRVSKRLLSLLSQKELLPPKEYRYISLHSHNEEATLQNLPPDFFTQEVVYMSDAGMPCISDPGAALVRYAQERGISYTVLPGA” the protein production was “failed”.

For “MTIATSTKPQINWVNTLFFLGLHIGALFAFIPSNFSWAAVGVALLLYWITGGLGITLGFHRLVTHRSFQTPKWLEYFLVLCGTLACQGGPIEWVGTHRIHHLHSDTDPDPHDSNKGFWWSHIGWLIYHSPSHADVPRFTKDIAEDPVYQFLQKYFIFIQIALGLLLLYLGGWSFVVWGVFFRIVWVYHCTWLVNSATHKFGYRTYDAGDRSTNCWWVAVLVFGEGWHNNHHAFQYSARHGLEWWEVDLTWMTVQLLQILGLATNVKLADKKQ”, the protein production was “failed”.

For “MAHVRLFRHYIHLPFVILGLIDLIVMGLAFALAVFFRFFGELEFFLDNLVFVLPSITIFALFNLIVMIALGVHQSRVEEGMSGMMLRTIMAMILAIPLHGFAYFVADDWLWYLGSFGLLTSATVLGIFSLGIARVVFFAVVGKDRFKRRVLVLGAGRRAKQMFEDLTTPFNRKGFSLDGFVPMPDDTVEVDEQYLINLPTSLHDYVLRHPVREIVVAVDDRRRGLPMEDLLECKMEGVHIIDGANFYERESRKVALEMITRGWLVFSDGFTVSSVYGVGKRALDVLASGTLLLATFPIMILTAIAIKLEDGLKAPVIYSQERVGLNNQVFKVHKFRSMITDAEKNGAVWARKNDTRVTRVGEFIRKVRIDELPQIFNVLNGTMAFVGPRPERPVFVEQLSEKIPFYAERHRVKPGLTGWAQLCFAYADNEEDTREKLRYDLYYIKNQSLLLDLLIIIQTVEVVLFKKGSR”, the protein production was “failed”.

For “MGLMKFQLFIQPKLDVLQGNIVEYEILLRDDSAVPRFPLSELEAVLADEELYLAFSEWFSEAFLDVLKKYPNDRFAINIAPQQLFYIETLHWLDKLKSESHRITVEMTEDIFDVPGHKRHLNANDKNAFILNKIKVIHGLGYHIAIDDVSCGLNSLERVMSYLPYIIEIKFSLIHFKNIPLEDLLLFIKAWANFAQKNKLDFVVEGIETKETMTLLESHGVSIFQGYLVNKPFPV”, the protein production was “not failed”.

With “GSSGSSGPTMEGPLRRKTLLKEGRKPALSSWTRYWVVLSGATLLYYGAKSLRGTDRKHYKSTPGKKVSIVGWMVQLPDDPEHPDIFQLNNPDKGNVYKFQTGSRFHAILWHKHLDDACKSSRPQVPANLMSFE” the protein production was “not failed”.

In the case of “MVPEITIDVNVFPSPRKSSSNTVEINLKRESDDKCDDAPLFQITQLILKDVVNFDPHKTSPLLETIFPDSISGTRLCVEMALASERVPAPFDMYLHVTVRFVEESTSSSPLENKTCAICLEDMSQDVHDYQEMPNCPHVFHNDCIYKWLGHSNLCPLCRTVLEDEDDDDYPYYS”, the protein production is reported as “failed”.

In the case of “MRVLVVGANGKVARYLLSELKNKGHEPVAMVRNEEQGPELRERGASDIVVANLEEDFSHAFASIDAVVFAAGSGPHTGADKTILIDLWGAIKTIQEAEKRGIKRFIMVSSVGTVDPDQGPMNMRHYLVAKRLADDELKRSSLDYTIVRPGPLSNEESTGKVTVSPHFSEITRSITRHDVAKVIAELVDQQHTIGKTFEVLNGDTPIAKVVEQL”, the protein production is reported as “not failed”.

In the case of “MIKDCANRYFLSFVVEVEPNTTIANNQSIGIDLGLKTFAVMSNGEKALSPDYSKHDRKIRKLQKKLARQQKDSKRRNNTRVKIAKLHNQIADTRKDFLHKLSTKIINDNQVIVLEDLNVSGMVKNSRLSRVISLQGWREFRNLCEAKSEKFSRDFRVIDRWQPTSQICSCCGFRWGKIDLSVRSILCLSCGTEQERDENASRNIEMVGMGHRHDLKRAGSDCQTTSVASYCELSRITEVESR”, the protein production is reported as “failed”.

With “MNQHLLGNPKLTVTHVNEVKAGINHIVVDSVQYGNQEMIMEKDGTVEMRDGEKLYINIFRPNKDGKFPVVMSADTYGKDNKPKITNMGALWPTLGTIPTSSFTPEESPDPGFWVPNDYVVVKVALRGSDKSKGVLSPWSKREAEDYYEVIEWAANQSWSNGNIGTNGVSYLAVTQWWVASLNPPHLKAMIPWEGLNDMYREVAFHGGIPDTGFYRFWTQGIFARWTDNPNIEDLIQAQQEHPLFDDFWKQRQVPLSQIKTPLLTCASWSTQGLHNRGSFEGFKQAASEEKWLYVHGRKEWESYYARENLERQKSFFDFYLKEENNDWKDTPHVIYEVRDQFYKGEFKSASAFPLPNAEYTPLYLNAENHTLNHAKISSAHVAQYDSEDKQQDVSFKYTFDKDTELVGNMNLKLWVSTKDSDDMDLFAGIKKLDRRGNEVNFPDFNHIENGQVATGWLRVSHRELDQEKSSIAQPWHKHETELKLSQDEIVPVEIELLPSGTLFKQGETLEVVVKGSEIVIGNSTPGMKTRYEHEETVNKGMHMIYTGGKYDSQLIIPIVN” the protein production was “not failed”.

With “QRISLEIMTLQPRCEDVETAEGVALTVTGVAQVKIMTEKELLAVACEQFLGKNVQDIKNVVLQTLEGHLRSILGTLTVEQIYQDRDQFAKLVREVAAPDVGRMGIEILSFTIKDVYDKVDYLSSLGKTQT” the protein production was “not failed”.

With “MHEFSTVDGFAEINESLAEMIKYIANEPSVGLYYIQQHIRNAAPNVINLNNNVLEKSRETGLHTEDLEDSIAMVKSMKDCGSPIADEMIGDIKNSLAIMSSKQPRRGVILNSTSPWSRSSSITTRTRGSDNSQDNSESSNYFTSVFMTAKEKASNIKWPQLDFKEQKSEADPNVQSNELKEEEEEDSGKGEHIVETTKFEEFKAGKEASLKAWLGDMDGNVDVGGRVAERI” the protein production was “not failed”.

In the case of “MSEIILVTGAAGQLGQRVIHHLIETYKVAPGNIVAATRSPEKLSELEKKGVVTRKADFDDAAGLEKAFAGVDRLLIISTDALDTPGKRLAQHKGAVAAAVKSGVKHIAYTSMPGPDNSLVTFAPDHLGSENAIKASGIAHTIIRDAWYHDNYLHGMPHNLQGGKWYSATGDGKISTISRDDCALAIAAALASGTSESATYTVTGTQSLNSRQIAAIVSDVAGKPLEVIDVTDEQLGQGMRGAGLPGFVADMLVSADANTRAGKFDIVTEDFTKLTGKQPQPLKDFFVEHKATLTA”, the protein production is reported as “failed”.

In the case of “IKATYETFSSPNGHGEGRGYLVMPQKKTIKSPTVLVIHENRGLNPYIKDVARRLAKDGFIAFAPDALYPLGGYPGNDDEGRAMQKEMDRAKIEQDFIAAAKFIKQHEHGNGKLGAVGFCFGGYVVNMLAAVMPNELDAGVPFYGTPAAEEIQKQVKGPLMLHFAGLDKRVNDTWPSYEQQLIASGAKYQALMYENVNHGFHNDSTARYAPEEAALAWERTLAFFKEHL”, the protein production is reported as “failed”.

In the case of “MKPEHRMDTISKLEEGAETPVTGRVMKISSPRTFTTRKGREGKLANVIIADDTGELRAVFWTENIKLLKKFREGDVIRIKDVNIRGGFGGRKEAHLMPRSTVEVLDPLEHHHHHH”, the protein production is reported as “not failed”.

In the case of “MRFWGKFFGFVIGFMFGRFFGALLGLWLGHLYDKRPGGGASFSQILGQAKNRQGIFFNTTFAVMGHVAKASGRVTETDIRIATLLMDQMRLTGDARKEAQQAFREGKEPDFDLCSSLQAFRAVTQGRQELVQMFIEIQIQTALSDGELDAAEHAILMTVAQELGYGRQQLDELLKRWQAEFRFHQTSSGNKTSITDAYHLLGITAEATDQEVKRAYRKLMNEHHPDKLVAKGLPPEMMEIANRKAQDIQAAYDRVKSERGMR”, the protein production is reported as “failed”.

For “MSDWPPKPQNEVQNSNNKTGQEWQILEKAVLASVEEQRRTRRWGIFFKFLTFLYLLFVFVLLGRGCTTSESSGGTSSSTAHLAVVNIIGTIDSSNQSVNSEDTNKALERAFEAKNSKAVALNINSPGGSPVQSDEIWQEIRYLKKQHPDKKVYAVIGDMGASGAYYIASAADEIIVNPSSLVGSIGVIMPNYGITGLAQKLGIEDRTLTSGSNKDILSMTKPVNPAQREHIQSVLDNVHAHFINAVKEGRGTRLKSNDPAIFSGLFWTGEQAIQLGVADRTGNLDTLMRELKVENKVNYTIERSPFESILGKMGSELGQGISQSVSQQLKTEQQAKLQ”, the protein production was “failed”.

In the case of “MDQFPESVTENFEYDDLAEACYIGDIVVFGTVFLSIFYSVIFAIGLVGNLLVVFALTNSKKPKSVTDIYLLNLALSDLLFVATLPFWTHYLINEKGLHNAMCKFTTAFFFIGFFGSIFFITVISIDRYLAIVLAANSMNNRTVQHGVTISLGVWAAAILVAAPQFMFTKQKENECLGDYPEVLQEIWPVLRNVETNFLGFLLPLLIMSYCYFRIIQTLFSCKNHKKAKAIKLILLVVIVFFLFWTPYNVMIFLETLKLYDFFPSCDMRKDLRLALSVTETVAFSHCCLNPLIYAFAGEKFRRYLYHLYGKCLAVLCGRSVHVDFSSSESQRSRHGSVLSSNFTYHTSDGDALLLL”, the protein production is reported as “failed”.
